# From publication doi:10.1101/2020.12.10.418392
# T1: RLP42-GFP (A. thaliana) (UniProt Q9LJS0)
# T1 sequence: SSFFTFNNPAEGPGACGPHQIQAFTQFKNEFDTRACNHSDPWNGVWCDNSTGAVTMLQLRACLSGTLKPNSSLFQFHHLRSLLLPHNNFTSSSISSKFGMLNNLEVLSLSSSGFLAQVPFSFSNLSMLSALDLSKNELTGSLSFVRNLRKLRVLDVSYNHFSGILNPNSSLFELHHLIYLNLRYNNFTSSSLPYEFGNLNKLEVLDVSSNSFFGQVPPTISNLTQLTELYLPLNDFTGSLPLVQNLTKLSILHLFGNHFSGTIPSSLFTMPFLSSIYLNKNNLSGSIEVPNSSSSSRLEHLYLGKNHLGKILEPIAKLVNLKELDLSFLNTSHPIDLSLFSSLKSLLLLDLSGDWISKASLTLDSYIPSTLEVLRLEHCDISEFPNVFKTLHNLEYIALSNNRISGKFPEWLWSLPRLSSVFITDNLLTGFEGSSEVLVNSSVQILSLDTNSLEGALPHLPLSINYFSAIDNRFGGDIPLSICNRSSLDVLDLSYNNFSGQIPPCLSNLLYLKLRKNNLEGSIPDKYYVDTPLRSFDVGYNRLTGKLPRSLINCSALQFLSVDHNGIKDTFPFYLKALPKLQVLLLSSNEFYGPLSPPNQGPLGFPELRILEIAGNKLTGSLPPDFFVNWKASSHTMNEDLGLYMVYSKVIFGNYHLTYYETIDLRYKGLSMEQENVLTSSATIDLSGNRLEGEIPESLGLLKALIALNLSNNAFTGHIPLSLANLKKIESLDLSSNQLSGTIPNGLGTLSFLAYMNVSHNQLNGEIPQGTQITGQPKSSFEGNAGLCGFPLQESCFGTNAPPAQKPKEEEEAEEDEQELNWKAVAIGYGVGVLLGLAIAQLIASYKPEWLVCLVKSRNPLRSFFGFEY
# Biological target: T1, RLP42-GFP (A. thaliana)
binder,measurement,value
AKNTDGFDL [Oom-pg9],EC50 of ethylene production in A. thaliana Col-0 leaves,1300 nM
